Results on one molecule are retold here after US20250043002A1.

In the experiment the target is human PD1 expressed on Jurkat/AP1-Luc/hPD1 cells (human) (UniProt Q15116). Put plainly: cell-based or functional assay.
Chain of human PD1 expressed on Jurkat/AP1-Luc/hPD1 cells (human) (Q15116 25-288): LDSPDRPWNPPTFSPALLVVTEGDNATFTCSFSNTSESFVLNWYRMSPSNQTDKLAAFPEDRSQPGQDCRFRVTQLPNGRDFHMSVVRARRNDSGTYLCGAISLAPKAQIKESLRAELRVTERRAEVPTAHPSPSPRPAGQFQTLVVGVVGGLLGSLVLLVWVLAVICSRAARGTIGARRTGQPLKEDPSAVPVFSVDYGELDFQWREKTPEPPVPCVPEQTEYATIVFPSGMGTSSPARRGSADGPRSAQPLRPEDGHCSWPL

B1: REGN2810 (cemiplimab, LIBTAYO), anti-PD1 antibody (antibody, INN chains, looked up, V domains shown)
VH: EVQLLESGGVLVQPGGSLRLSCAASGFTFSNFGMTWVRQAPGKGLEWVSGISGGGRDTYFADSVKGRFTISRDNSKNTLYLQMNSLKGEDTAVYYCVKWGNIYFDYWGQGTLVTVSS
VL: DIQMTQSPSSLSASVGDSITITCRASLSINTFLNWYQQKPGKAPNLLIYAASSLHGGVPSRFSGSGSGTDFTLTIRTLQPEDFATYYCQQSSNTPFTFGPGTVVDFR
Regarding B1, the AP-1 luciferase EC50, WSU-DLCL2/hPD-L1 + Jurkat/AP1-Luc/hPD1 was 0.29 nM and the AP-1 luciferase MAX (RLU), WSU-DLCL2/hPD-L1 + Jurkat/AP1-Luc/hPD1 came to 1.1e+06 RLU.
